Experimental findings from patent CN117866903A are described below.

This assay has as its target T1, 生物素化的IL-17A of the IL-17A[Biotinylated] : IL-17RA Inhibitor Screening ELISA Kit (ACROBiosystems, EP-139) (UniProt Q16552).
T1 sequence (biotinylated, looked up): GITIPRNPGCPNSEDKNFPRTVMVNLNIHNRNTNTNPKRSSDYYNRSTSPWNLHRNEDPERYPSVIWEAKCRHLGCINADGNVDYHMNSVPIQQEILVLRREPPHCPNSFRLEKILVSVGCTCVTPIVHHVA
Kind of assay: competition ELISA kit (ACROBiosystems EP-139): IL-17RA coated, biotinylated IL-17A, culture supernatant diluted 5-fold. In general terms: In an ELISA, binding on a coated surface is turned into a signal by an enzyme label.

B1: IL-17Nb secreted by C3-H10-MSC (1-C3-3-H10: Fc融合蛋白, VHH-(GGGGS)3-VHH-IgG4 Fc) (Fc fusion)
chain: DVQLVESGGGLVEPGESLRLSCAAPGEDLGYYAIAWFRQAPGKEREVVSCVTSSGSSTNYLSSVKDRFTISIDNAKNTVYLQMNSLKPEDTAVYYCASTILLCSDYISAFGTWGQGTQVTVASGGGGSGGGGSGGGGSEVQLVESGGGLVQPGGSLRLSCAASGFSIHIYAMGWYRQAPGKQRELVATITRGGVTNNADSVKGRFTISRDNAKNTAYLQMNSLKPEDTAVYYCNAGGTNGGYWGQGTQVTVSSAPEFLGGPSVFLFPPKPKDTLMISRTPEVTCVVVDVSQEDPEVQFNWYVDGVEVHNAKTKPREEQFNSTYRVVSVLTVLHQDWLNGKEYKCKVSNKGLPSSIEKTISKAKGQPREPQVYTLPPSQEEMTKNQVSLTCLVKGFYPSDIAVEWESNGQPENNYKTTPPVLDSDGSFFLYSRLTVDKSRWQEGNVFSCSVMHEALHNHYTQKSLSLSLGK
B1 gave a 结合抑制率 of 58%.
